Experimental data taken from patent publication US20130150294.

System: purified recombinant full-length Src from Upstate Biotechnology

## purified pig kidney Na+/K+-ATPase (PKE)
  Src-mediated tyrosine phosphorylation (commercial kinase assay kit): the Na+/K+-ATPase kept Src in an inactive state, addition of ouabain restored the kinase activity
